Experimental data taken from PMC9482650, “Quantitative fragmentomics allow affinity mapping of interactomes” (Nature Communications, 2022).

Tests used:
Experiment in all cases: holdup assay
Design in all cases: key: below the threshold = too weak to quantify, mostly under pKd 3.1 to 4
[1] = biological target: T1, LIN7B, Q9HAP6
T1 sequence (Q9HAP6 88-185, limits assumed, looked up): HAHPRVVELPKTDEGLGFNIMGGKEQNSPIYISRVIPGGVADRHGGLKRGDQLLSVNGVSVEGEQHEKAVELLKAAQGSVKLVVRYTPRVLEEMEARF

[2] = biological target: MAST1, Q9Y2H9
Chain of MAST1, Q9Y2H9 (Q9Y2H9 962-1065): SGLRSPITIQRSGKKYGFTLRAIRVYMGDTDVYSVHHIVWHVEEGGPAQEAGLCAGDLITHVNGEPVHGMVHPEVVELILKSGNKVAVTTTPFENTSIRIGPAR

[3] = biological target: ARHGEF12, Q9NZN5-2
Chain of ARHGEF12, Q9NZN5-2 (Q9NZN5 other isoform, or with tags, fused parts or gaps): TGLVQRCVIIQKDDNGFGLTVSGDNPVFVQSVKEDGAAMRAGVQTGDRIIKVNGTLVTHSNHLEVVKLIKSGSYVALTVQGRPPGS

[4] = biological target: T2, MPP7, Q5T2T1
T2 sequence (Q5T2T1 134-230, limits assumed, looked up): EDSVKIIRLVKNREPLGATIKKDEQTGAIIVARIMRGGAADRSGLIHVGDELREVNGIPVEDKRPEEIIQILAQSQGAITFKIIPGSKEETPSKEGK

[5] = biological target: MAGI2_4, Q86UL8
Chain of MAGI2_4, Q86UL8 (Q86UL8 772-865): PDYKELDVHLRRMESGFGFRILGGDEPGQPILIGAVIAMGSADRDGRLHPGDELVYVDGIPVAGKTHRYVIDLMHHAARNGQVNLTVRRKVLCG

[6] = biological target: T3, RHPN1, Q8TCX5
T3 sequence (Q8TCX5 508-602, limits assumed, looked up): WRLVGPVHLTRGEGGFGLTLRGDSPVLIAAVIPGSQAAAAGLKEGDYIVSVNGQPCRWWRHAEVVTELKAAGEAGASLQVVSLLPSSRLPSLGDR

[7] = biological target: SCRIB_2, Q14160
Chain of SCRIB_2, Q14160 (Q14160 857-960): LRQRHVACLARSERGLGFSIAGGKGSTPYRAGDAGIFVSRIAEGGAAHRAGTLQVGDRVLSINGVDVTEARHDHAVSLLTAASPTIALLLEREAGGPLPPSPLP

[8] = biological target: T4, DFNB31_1, Q9P202
T4 sequence (Q9P202 135-233, limits assumed, looked up): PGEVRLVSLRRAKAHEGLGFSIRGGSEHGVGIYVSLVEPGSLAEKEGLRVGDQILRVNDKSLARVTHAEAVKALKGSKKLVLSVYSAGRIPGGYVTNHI

[9] = biological target: T5, DLG3_1, Q92796
T5 sequence (Q92796 125-227, limits assumed, looked up): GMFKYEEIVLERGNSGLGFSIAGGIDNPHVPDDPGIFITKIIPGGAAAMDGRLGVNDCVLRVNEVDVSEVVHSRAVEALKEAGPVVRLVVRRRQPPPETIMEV

[10] = biological target: T6, ARHGAP21, Q5T5U3
T6 sequence (Q5T5U3 45-169, limits assumed, looked up): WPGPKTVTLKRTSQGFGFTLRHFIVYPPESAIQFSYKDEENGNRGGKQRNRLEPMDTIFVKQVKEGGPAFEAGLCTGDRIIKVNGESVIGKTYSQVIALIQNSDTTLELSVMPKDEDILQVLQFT

[11] = biological target: T7, PDZRN3_1, Q9UPQ7
T7 sequence (Q9UPQ7 244-349, limits assumed, looked up): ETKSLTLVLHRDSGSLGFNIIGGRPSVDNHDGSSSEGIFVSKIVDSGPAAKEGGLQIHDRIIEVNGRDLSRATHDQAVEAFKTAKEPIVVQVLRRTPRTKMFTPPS

[12] = biological target: T8, PDZD7_3, Q9H5P4
T8 sequence (Q9H5P4 857-944, limits assumed, looked up): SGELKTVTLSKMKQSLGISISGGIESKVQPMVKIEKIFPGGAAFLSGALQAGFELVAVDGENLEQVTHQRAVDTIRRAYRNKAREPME

[13] = biological target: T9, DLG3_3, Q92796
T9 sequence (Q92796 374-475, limits assumed, looked up): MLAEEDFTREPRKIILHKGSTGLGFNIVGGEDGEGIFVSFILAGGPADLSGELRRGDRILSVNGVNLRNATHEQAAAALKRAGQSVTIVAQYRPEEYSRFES

[14] = biological target: SCRIB_3, Q14160
Chain of SCRIB_3, Q14160 (Q14160 999-1103): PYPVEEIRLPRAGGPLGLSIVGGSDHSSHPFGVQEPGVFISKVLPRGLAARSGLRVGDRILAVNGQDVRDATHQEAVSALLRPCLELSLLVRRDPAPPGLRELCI

[15] = biological target: IL16_1, Q14005
Chain of IL16_1, Q14005 (Q14005 210-306): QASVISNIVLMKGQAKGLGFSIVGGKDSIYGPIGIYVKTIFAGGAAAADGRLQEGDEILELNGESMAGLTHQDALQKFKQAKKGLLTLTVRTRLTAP

[16] = biological target: PTPN3, P26045
Chain of PTPN3, P26045 (P26045 505-587): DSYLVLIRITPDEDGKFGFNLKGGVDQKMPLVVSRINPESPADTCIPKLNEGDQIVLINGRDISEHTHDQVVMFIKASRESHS

[17] = biological target: DLG1_1, Q12959
[18] = biological target: T10, TIAM2, Q8IVF5
T10 sequence (Q8IVF5 885-986, limits assumed, looked up): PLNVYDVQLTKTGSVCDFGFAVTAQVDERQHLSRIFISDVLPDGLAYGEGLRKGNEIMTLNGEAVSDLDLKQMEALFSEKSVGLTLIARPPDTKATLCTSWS

[19] = biological target: T11, MPDZ_12, O75970
T11 sequence (O75970 1857-1958, limits assumed, looked up): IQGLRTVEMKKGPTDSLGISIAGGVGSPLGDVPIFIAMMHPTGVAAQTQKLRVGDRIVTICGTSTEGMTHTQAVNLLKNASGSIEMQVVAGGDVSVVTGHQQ

[20] = biological target: HTRA2, O43464
Chain of HTRA2, O43464 (O43464 355-458): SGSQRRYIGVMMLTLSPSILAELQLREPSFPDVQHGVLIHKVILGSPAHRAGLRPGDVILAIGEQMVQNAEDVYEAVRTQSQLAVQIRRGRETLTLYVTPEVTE

[21] = biological target: LNX1_1, Q8TBB1
Chain of LNX1_1, Q8TBB1 (Q8TBB1 261-371): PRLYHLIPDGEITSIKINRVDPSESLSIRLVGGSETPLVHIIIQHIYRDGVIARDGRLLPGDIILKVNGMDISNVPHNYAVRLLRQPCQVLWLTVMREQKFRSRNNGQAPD

[22] = biological target: GOPC, Q9HD26
[23] = biological target: LDB3, O75112
Chain of LDB3, O75112 (O75112 1-94): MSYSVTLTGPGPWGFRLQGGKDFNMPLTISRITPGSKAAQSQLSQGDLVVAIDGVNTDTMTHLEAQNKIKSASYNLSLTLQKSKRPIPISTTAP

[24] = biological target: T12, SHANK1, Q9Y566
T12 sequence (Q9Y566 658-767, limits assumed, looked up): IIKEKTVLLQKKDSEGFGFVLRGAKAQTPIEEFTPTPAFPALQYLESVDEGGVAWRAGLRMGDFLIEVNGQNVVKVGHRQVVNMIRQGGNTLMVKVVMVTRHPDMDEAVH

[25] = biological target: PARD3_3, Q8TEW0
Chain of PARD3_3, Q8TEW0 (Q8TEW0 582-685): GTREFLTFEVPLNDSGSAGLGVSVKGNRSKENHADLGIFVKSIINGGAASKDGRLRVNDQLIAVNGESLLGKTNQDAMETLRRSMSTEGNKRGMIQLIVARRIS

[26] = plain residues with an end cap or a label only (N-terminal biotin on a linker: ado-ado)
[27] = plain residues with an end cap or a label only (N-terminal biotin on a linker: (peg)3)

## RTQSSDSAYV [GJD2, Q9UKL4]
[1]; [26]
  pKd: below the threshold
[2]; [26]
  pKd: below the threshold
[3]; [26]
  pKd: 4.35
[4]; [26]
  pKd: below the threshold
[5]; [26]
  pKd: below the threshold
[6]; [26]
  pKd: 3.84
[7]; [26]
  pKd: below the threshold
[8]; [26]
  pKd: below the threshold
[9]; [26]
  pKd: below the threshold
[10]; [26]
  pKd: 3.62
[11]; [26]
  pKd: below the threshold
[12]; [26]
  pKd: below the threshold
[13]; [26]
  pKd: below the threshold
[14]; [26]
  pKd: below the threshold
[15]; [26]
  pKd: below the threshold
[16]; [26]
  pKd: 3.52
[17]; [26]
  pKd: below the threshold
[18]; [26]
  pKd: below the threshold
[19]; [26]
  pKd: below the threshold
[20]; [26]
  pKd: below the threshold
[21]; [26]
  pKd: 3.9
[22]; [26]
  pKd: below the threshold
[23]; [26]
  pKd: below the threshold
[24]; [26]
  pKd: below the threshold
[25]; [26]
  pKd: 3.68

## GQETPLNTFC [MAP7D2, Q96T17]
[1]; [26]
  pKd: 3.81
[2]; [26]
  pKd: 3.79
[3]; [26]
  pKd: 3.77
[4]; [26]
  pKd: below the threshold
[5]; [26]
  pKd: below the threshold
[6]; [26]
  pKd: below the threshold
[7]; [26]
  pKd: below the threshold
[8]; [26]
  pKd: below the threshold
[9]; [26]
  pKd: below the threshold
[10]; [26]
  pKd: below the threshold
[11]; [26]
  pKd: below the threshold
[12]; [26]
  pKd: 4.29
[13]; [26]
  pKd: below the threshold
[14]; [26]
  pKd: below the threshold
[15]; [26]
  pKd: below the threshold
[16]; [26]
  pKd: 4.38
[17]; [26]
  pKd: below the threshold
[18]; [26]
  pKd: 3.62
[19]; [26]
  pKd: below the threshold
[20]; [26]
  pKd: below the threshold
[21]; [26]
  pKd: below the threshold
[22]; [26]
  pKd: below the threshold
[23]; [26]
  pKd: below the threshold
[24]; [26]
  pKd: below the threshold
[25]; [26]
  pKd: below the threshold

## YDEPTTTTSVPL [SARS-Cov2-3a, P0DTC3]
[1]; [27]
  pKd: below the threshold
[2]; [27]
  pKd: below the threshold
[3]; [27]
  pKd: below the threshold
[4]; [27]
  pKd: below the threshold
[5]; [27]
  pKd: below the threshold
[6]; [27]
  pKd: below the threshold
[7]; [27]
  pKd: below the threshold
[8]; [27]
  pKd: below the threshold
[9]; [27]
  pKd: below the threshold
[10]; [27]
  pKd: 3.75
[11]; [27]
  pKd: below the threshold
[12]; [27]
  pKd: below the threshold
[13]; [27]
  pKd: below the threshold
[14]; [27]
  pKd: below the threshold
[15]; [27]
  pKd: below the threshold
[16]; [27]
  pKd: below the threshold
[17]; [27]
  pKd: below the threshold
[18]; [27]
  pKd: below the threshold
[19]; [27]
  pKd: below the threshold
[20]; [27]
  pKd: below the threshold
[21]; [27]
  pKd: below the threshold
[22]; [27]
  pKd: below the threshold
[23]; [27]
  pKd: below the threshold
[24]; [27]
  pKd: below the threshold
[25]; [27]
  pKd: below the threshold
